Measured values reported in patent publication US20170166895.

Key:
[1] = molecular target: T1, Complement component 3 (C3) (Homo sapiens) (UniProt P01024+P01024); experiment: filter; settings: all U = NapdU, 3'-3' idT, SB18T0.01, 37C
[2] = molecular target: T1, Complement component 3 (C3) (Homo sapiens); experiment: inhibition; settings: P = NapdU (all U), 3'-3' idT, hemolysis, 20 nM C3, GVB++, 37 C
[3] = 2'-OMe at 1,2,3,5,7,10,13,26,27,28

T1 sequence (P01024 23-667, chain 1 of 2): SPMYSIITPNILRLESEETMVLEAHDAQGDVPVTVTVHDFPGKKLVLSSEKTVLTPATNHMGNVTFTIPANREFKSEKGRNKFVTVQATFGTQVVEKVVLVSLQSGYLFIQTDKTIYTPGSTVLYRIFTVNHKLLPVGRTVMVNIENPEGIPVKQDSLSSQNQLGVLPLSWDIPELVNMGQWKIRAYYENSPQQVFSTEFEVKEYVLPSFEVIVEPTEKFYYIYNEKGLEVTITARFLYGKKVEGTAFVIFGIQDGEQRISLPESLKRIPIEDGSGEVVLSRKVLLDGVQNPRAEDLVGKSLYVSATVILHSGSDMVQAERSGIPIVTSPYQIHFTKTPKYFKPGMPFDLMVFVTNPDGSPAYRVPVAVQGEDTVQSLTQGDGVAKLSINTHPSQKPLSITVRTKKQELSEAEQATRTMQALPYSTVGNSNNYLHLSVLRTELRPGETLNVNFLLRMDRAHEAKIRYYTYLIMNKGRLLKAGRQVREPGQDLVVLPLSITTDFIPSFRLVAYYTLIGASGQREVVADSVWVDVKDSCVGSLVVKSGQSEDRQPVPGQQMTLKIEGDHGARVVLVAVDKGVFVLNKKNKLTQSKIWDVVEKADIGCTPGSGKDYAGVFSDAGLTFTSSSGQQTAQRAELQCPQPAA
T1 sequence (P01024 672-1663, chain 2 of 2): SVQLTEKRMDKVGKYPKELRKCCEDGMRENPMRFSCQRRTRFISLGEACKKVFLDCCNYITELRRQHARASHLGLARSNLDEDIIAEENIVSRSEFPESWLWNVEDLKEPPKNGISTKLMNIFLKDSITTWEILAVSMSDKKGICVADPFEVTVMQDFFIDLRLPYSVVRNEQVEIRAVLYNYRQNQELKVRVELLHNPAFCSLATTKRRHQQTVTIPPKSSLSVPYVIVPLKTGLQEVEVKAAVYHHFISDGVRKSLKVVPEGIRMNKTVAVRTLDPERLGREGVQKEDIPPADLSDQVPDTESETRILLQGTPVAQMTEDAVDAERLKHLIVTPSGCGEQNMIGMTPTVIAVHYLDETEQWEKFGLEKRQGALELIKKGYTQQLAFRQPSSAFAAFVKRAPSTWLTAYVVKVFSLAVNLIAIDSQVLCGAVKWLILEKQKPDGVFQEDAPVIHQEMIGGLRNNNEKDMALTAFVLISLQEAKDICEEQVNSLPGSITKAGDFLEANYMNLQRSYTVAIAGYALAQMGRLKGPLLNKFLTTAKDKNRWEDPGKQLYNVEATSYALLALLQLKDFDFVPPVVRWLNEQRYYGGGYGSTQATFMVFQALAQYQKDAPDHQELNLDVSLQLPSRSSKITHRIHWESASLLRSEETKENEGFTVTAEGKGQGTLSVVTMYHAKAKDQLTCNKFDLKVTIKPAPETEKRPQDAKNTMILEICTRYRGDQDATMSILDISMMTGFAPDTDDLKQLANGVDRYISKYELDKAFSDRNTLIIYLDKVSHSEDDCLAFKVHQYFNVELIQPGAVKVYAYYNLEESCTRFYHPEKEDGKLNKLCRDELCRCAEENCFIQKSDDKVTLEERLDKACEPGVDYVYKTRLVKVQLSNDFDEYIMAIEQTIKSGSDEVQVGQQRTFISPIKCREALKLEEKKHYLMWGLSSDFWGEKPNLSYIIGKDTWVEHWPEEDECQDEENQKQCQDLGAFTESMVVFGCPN

Sequence | Kd [1] | IC50 [2] | further results
CGGUGACUCAAUAGUCCGUACGUUCCCG [8491-94_97] |  |  | Kd ([1]; 2'-OMe at 1,2,3,5,7,9,10,13,19,20,22-28): 0.0549 nM; IC50 ([2]; 2'-OMe at 1,2,3,5,7,9,10,13,19,20,22,23,24,25,26,27,28, C3a release in 34% serum IC50 3 uM): 15.6 nM
CGGUGACUCAAUAGUCCGUACGUUCCCG [8491-94_90] |  |  | Kd [1, 3]: 0.00424 nM; IC50 [2, 3]: 18.9 nM
CCGGUGACUCAAUAGUCCGUACGUUCCCG [8491-94_27] | 0.0658 nM | 24.6 nM | 
CCGGUGACUCAAUAGUCCGUACGUUCCCGG [8491-94_26] | 0.0511 nM | 15.1 nM | 
